Data on one substance can be found in patent publication US20250388664A1.

For assay [1], the target named is Aβ1-40 monomer (UniProt P05067). The assay can be described thus: inhibition ELISA: antibody at a fixed concentration pre-incubated with titrated Aβ1-40 monomer in solution, then on an AβpE3-40 coat; the x axis is the Aβ1-40 concentration. For orientation: ELISA stands for enzyme-linked immunosorbent assay.
The target of assay [2] is AβpE11-40 monomer (UniProt P05067). The experiment in a line: inhibition ELISA: antibody at a fixed concentration pre-incubated with titrated AβpE11-40 monomer in solution, then on an AβpE3-40 coat; the x axis is the AβpE11-40 concentration.
AβpE11-40 monomer, sequence (P05067 682-711): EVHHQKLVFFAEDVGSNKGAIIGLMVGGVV

Aβ1-40 monomer, sequence (P05067 672-711): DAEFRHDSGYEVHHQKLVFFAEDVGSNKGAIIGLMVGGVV

As to 4G8 (antibody), the IC50 (read off the curve) in assay [1] and in assay [2] was 20 nM in each case.
